Reference: paper doi:10.1101/746693 (bioRxiv, 2019)

Biological target: T1, Proteinase Activated Receptor-4 (PAR4)-YFP, wild type (human, UniProt Q96RI0 48-385)
T1 sequence (looked up): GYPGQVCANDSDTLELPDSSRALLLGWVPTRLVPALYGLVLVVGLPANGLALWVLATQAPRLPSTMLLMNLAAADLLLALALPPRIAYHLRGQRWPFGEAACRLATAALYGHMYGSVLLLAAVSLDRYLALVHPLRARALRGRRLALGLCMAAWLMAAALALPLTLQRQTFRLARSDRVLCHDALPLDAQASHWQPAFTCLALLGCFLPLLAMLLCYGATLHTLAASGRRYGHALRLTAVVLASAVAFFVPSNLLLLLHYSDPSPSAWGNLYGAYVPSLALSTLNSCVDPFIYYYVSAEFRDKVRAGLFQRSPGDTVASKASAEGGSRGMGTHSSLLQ
Assay: FRET or BRET

B1: β-arrestin-1-renilla luciferase (natural protein, UniProt P49407 1-418, looked up)
chain: MGDKGTRVFKKASPNGKLTVYLGKRDFVDHIDLVDPVDGVVLVDPEYLKERRVYVTLTCAFRYGREDLDVLGLTFRKDLFVANVQSFPPAPEDKKPLTRLQERLIKKLGEHAYPFTFEIPPNLPCSVTLQPGPEDTGKACGVDYEVKAFCAENLEEKIHKRNSVRLVIRKVQYAPERPGPQPTAETTRQFLMSDKPLHLEASLDKEIYYHGEPISVNVHVTNNTNKTVKKIKISVRQYADICLFNTAQYKCPVAMEEADDTVAPSSTFCKVYTLTPFLANNREKRGLALDGKLKHEDTNLASSTLLREGANREILGIIVSYKVKVKLVVSRGGLLGDLASSDVAVELPFTLMHPKPKEEPPHREVPENETPVDTNLIELDTNDDDIVFEDFARQRLKGMKDDKEEEEDGTGSPQLNNR
EC50 of (N-Me-A)-YPGKF-NH2 for recruitment (BRET): 6.8 µM
EC50 of A-(N-Me-Y)-PGKF-NH2 for recruitment (BRET): 14.2 µM
EC50 of AYPG-(Nα-Me-K)-F-NH2 for recruitment (BRET): 12.2 µM
EC50 of AYPGK-(N-Me-F)-NH2 for recruitment (BRET): 10.4 µM
EC50 of Ac-AYPGKF-NH2 for recruitment (BRET): 15 µM
EC50 of VYPGKF-NH2 for recruitment (BRET): 33.8 µM
